Measurements as given in paper PMC12120020.

Biological target: XRCC4 (X-ray repair cross-complementing protein 4) (UniProt Q13426)
Assay: co-IP with anti-Flag M2 beads
Conditions: reference: Flag-AATF wild type, IR; sites S189

AATF (apoptosis antagonizing transcription factor) (from UniProt Q9NY61) Flag-AATF S189A, IR
binding against the reference: stronger
